Assay [1] concerns the target T1, VEGFR2-Fc (UniProt P35968 20-764, limits assumed).
T1 construct: Neither the source nor the limits of the VEGFR2-Fc construct are stated; also called VEGFR2 receptor; not shown: Fc part
The experiment in a line: yeast surface display, titration with soluble VEGFR2-Fc, % maximum VEGFR2-Fc bound.

The target of assay [2] is T2, prostate specific membrane antigen (PSMA) (UniProt Q04609 44-750, limits assumed).
T2 construct: also called folate hydrolase I
The experiment in a line: yeast surface display, titration with soluble PSMA, PSMA bound in arbitrary fluorescence.

Assay [3] has as its target T1, VEGFR2-Fc. The experiment in a line: soluble protein binding to VEGFR2-Fc, Octet platform (lower table; taken as the soluble-form table from legend paragraph 18 and paragraph 153). The source says:
The Octet® platform was used to measure the soluble affinity of the variants to VEGFR2-Fc and their respective target proteins. As with the results on the yeast surface, the variants' affinities to VEGFR2-Fc were similar to each other and to scVEGFmut.

Assay [4] concerns the target T2, prostate specific membrane antigen …. The experiment in a line: yeast surface display: VEGFR2/PSMA displayed on the yeast cell surface, titrated with soluble PSMA (upper table; taken as the yeast-display table from legend paragraph 18).
Assay [5] concerns the target T1, VEGFR2-Fc. The experiment in a line: yeast surface display: VEGFR2/PSMA displayed on the yeast cell surface, titrated with soluble VEGFR2-Fc (upper table; taken as the yeast-display table from legend paragraph 18).
Assay [6] deals with T1, VEGFR2-Fc. The experiment in a line: yeast surface display: scVEGFmut displayed on the yeast cell surface, titrated with soluble VEGFR2-Fc (upper table; taken as the yeast-display table from legend paragraph 18).

Results on two molecules are retold here after patent US20170204150A1 (Stanford University, published 2017).

T1 sequence (P35968 20-764 limits assumed): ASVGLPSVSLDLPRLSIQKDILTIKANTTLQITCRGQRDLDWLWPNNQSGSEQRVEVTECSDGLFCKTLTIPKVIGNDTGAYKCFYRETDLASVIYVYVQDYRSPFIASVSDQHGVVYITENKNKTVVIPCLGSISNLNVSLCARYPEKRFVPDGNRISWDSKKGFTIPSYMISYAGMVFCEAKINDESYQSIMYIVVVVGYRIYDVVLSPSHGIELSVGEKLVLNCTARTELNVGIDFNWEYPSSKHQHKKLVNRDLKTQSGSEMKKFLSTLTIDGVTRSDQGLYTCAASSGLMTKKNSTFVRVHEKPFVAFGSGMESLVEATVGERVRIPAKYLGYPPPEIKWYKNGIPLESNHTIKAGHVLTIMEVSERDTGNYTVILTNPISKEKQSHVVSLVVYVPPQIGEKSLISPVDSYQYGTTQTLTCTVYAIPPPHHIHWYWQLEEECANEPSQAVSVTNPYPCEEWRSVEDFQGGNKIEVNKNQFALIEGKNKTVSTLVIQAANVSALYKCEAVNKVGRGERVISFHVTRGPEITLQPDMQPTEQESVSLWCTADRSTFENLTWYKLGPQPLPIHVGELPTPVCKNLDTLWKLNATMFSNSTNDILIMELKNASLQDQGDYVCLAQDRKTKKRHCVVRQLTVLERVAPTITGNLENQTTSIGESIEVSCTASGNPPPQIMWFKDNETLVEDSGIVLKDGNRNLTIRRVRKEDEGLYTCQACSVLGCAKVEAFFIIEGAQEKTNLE
T2 sequence (Q04609 44-750 limits assumed): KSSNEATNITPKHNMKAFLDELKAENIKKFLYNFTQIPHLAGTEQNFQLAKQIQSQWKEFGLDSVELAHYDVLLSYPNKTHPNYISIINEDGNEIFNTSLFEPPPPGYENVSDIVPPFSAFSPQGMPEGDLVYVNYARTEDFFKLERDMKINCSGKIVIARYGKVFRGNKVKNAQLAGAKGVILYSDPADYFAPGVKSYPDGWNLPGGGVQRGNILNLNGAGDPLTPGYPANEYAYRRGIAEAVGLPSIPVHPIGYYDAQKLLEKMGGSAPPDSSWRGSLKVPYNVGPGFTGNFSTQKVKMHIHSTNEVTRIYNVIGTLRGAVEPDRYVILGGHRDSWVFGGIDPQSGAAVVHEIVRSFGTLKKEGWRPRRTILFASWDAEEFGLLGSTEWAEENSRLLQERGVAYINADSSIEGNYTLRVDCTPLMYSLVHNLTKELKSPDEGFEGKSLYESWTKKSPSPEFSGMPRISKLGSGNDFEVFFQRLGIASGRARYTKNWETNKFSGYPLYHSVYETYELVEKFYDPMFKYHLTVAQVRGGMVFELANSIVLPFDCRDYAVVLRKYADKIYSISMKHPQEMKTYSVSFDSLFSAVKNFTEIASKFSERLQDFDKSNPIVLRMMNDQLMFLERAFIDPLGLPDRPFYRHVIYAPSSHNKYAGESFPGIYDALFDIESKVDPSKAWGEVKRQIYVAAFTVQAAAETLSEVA

B1: VEGFR2/PSMA protein (designed binder)
chain: EVVKAMDVYQRSYCHPIETLVDIFQEYPDEIEYIFKPSCVPLMRCGGCCNDAGLECVPTEESNITMQIMRIKPHQGQHIGEMSFLQHNKCECRPKKDGGGGSGGGGSGGGGSGGGGSEVVKFMDVYQRSYCHPIETLVDIFQEYPSIASWNPWMAFKPSCVPLMRCGGCCNDEGLECVPTEESNITMQIMRNRLFRYLPVRHIGEMSFLQHNKCECRPKKD
For B1, the results for the half-maximal effective concentration (EC50 (read off the curve)) (with VEGFR2-Fc [1]; in assay [2]) were approximately 4 nM and approximately 40 nM, respectively. Besides, the Kd came out at 13 nM in the assay with VEGFR2-Fc [3], 58 nM in assay [4] and 4.6 nM in the assay with VEGFR2-Fc [5].

B2: scVEGFmut (ligand)
chain: APMAEGGGQNHHEVVKAMDVYQRSYCHPIETLVDIFQEYPDEIEYIFKPSCVPLMRCGGCCNDAGLECVPTEESNITMQIMRIKPHQGQHIGEMSFLQHNKCECRPKKDRARQEKCDKPRRGGGGSGGGGSGGGGSGGGGSAPMAEGGGQNHHEVVKFMDVYQRSYCHPIETLVDIFQEYPDEIEYAFKPSCVPLMRCGGCCNDEGLECVPTEESNITMQIMRAKPHQGQHIGEMSFLQHNKCECRPKKDRARQEKCDKPRR
notes: also called single-chain antagonist mutant VEGF; scaffold protein
As for B2, the “EC50 (read off the curve)” value with VEGFR2-Fc [1] was approximately 6 nM. Also, the Kd in the assay with VEGFR2-Fc [3] amounted to 13 nM; with VEGFR2-Fc [6], 6 nM.
